Measured values as given in patent US20250179196A1 (Janssen / Centocor, published 2025).
Changes are numbered by the printed parent chain.

T1: Recombinant human IL-23 receptor (IL-23R) extracellular domain (ECD) protein (human, UniProt Q5VWK5 24-355)
T1 construct: also called human IL-23R ECD; hu IL-23R ECD
T1 sequence: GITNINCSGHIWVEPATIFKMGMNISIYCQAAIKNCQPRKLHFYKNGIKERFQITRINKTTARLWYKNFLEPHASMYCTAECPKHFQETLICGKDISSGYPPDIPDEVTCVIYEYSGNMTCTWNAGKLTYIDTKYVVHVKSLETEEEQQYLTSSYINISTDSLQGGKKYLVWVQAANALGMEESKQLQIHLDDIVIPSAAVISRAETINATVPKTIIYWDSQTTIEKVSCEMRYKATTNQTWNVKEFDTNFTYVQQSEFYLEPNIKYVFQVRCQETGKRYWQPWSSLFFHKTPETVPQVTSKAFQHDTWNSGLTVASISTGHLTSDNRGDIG

B1: I23RB180 (antibody, mouse IgG2a, kappa, V domains shown)
VH: QVTLKESGPGILQPSQTLSLTCSFSGFSLSTYGMGVGWIRQPSGKGLEWLANIWWNDSKYHNAALKSRLTISKDTSKNQVFLKIASVDTADTATYYCGRIDGYYECVDVWGTGTSVTVSS
VL: DIQMTQSPASLSASVGETVTITCRASVNIHNYLAWYQQKQGKSPQLLVYNAKTLADGVPSRFSGSGSGTQYSLKINSLQPEDFGSYYCQHFWTTPYMYTFGAGTKLELKR
notes: mouse immunization; mouse IgG2a/kappa
B2: I23RB260 (antibody, mouse IgG2a, kappa, V domains shown)
VH: QVQLVQSGAEVKKPGSSVKVSCKASGGTFSSYGISWVRQAPGQGLEWMGGIIPIFGTANYAQKFQGRVTITADESTSTAYMELSSLRSEDTAVYYCARDFGWSLWFDYWGQGTLVTVSS
VL: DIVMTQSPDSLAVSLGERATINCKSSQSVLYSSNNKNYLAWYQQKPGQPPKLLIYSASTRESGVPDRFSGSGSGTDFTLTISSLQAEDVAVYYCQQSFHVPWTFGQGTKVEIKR
notes: phage display; human V regions, mouse IgG2a/kappa constant regions
B3: I23RB321 (antibody, mouse IgG2a, kappa, V domains shown)
VH: QVQLVQSGAEVKKPGSSVKVSCKASGGTFSSYGISWVRQAPGQGLEWMGWISAIFGTTNYAQKFQGRVTITADESTSTAYMELSSLRSEDTAVYYCARHWLQSFDYWGQGTLVTVSS
VL: DIQMTQSPSSLSASVGDRVTITCRASQSIGGDLNWYQQKPGKAPKLLIYAASSLQSGVPSRFSGSGSGTDFTLTISSLQPEDFATYYCQQSYSTPLTFGQGTKVEIKR
notes: as for B2
B4: I23RB264 (antibody, mouse IgG2a, kappa, V domains shown)
VH: B3 VH with G33A, W50G, S52I, A53P, T58A, H99R, W100S, L101S, Q102P, S103G
VL: B3 VL with G30D, G31N, A50N, S91P, T94I
notes: as for B2
B5: I23RB259 (antibody, mouse IgG2a, kappa, V domains shown)
VH: B3 VH with A53P, H99M, W100M, L101M, F104L
VL: not shown
notes: as for B2
B6: I23RB261 (antibody, mouse IgG2a, kappa, V domains shown)
VH: B3 VH with G33A, A53P, I54Y, T58A, H99M, W100Y, L101R, S103G
VL: B3 VL with G30N, G31D
notes: as for B2
B7: I23RB319 (antibody, mouse IgG2a, kappa, V domains shown)
VH: B3 VH with V93L, H99P, W100L, L101K, S103A
VL: B3 VL with G30T, G31D
notes: as for B2
B8: I23RB85 (antibody, mouse IgG2a, kappa, V domains shown)
VH: DVQLQESGPGLVAPSQSLSITCTVSGFSFNTYAITWVRQPPGRGLEWLGVLWPGGGISYNLALKSRLTISRDSSKSQVFLEMNSLQTDDTARYYCARNWRHYDGSYAMDFWGQGTSVTVSS
VL: DIVLTQSPLSLFVSLGDQASISCRSSQSLVHSNGNTYLHWYLQKPGQSPKLLIYKVSNRFSGVPDRFSGSGSGTDFTLKISRVEAEDLGVYFCSQSTHVPWTFGGGTRLEIKR
notes: as for B1
B9: I23RB317 (antibody, mouse IgG2a, kappa, V domains shown)
VH: QVQLVQSGAEVKKPGSSVKVSCKASGGTFSSYAISWVRQAPGQGLEWMGGIIPIFGTANYAQKFQGRVTITADESTSTAYMELSSLRSEDTAVYYCARGNGVNYHSELDYWGQGTLVTVSS
VL: EIVLTQSPATLSLSPGERATLSCRASQSVDSFLAWYQQKPGQAPRLLIYTASNRATGIPARFSGSGSGTDFTLTISSLEPEDFAVYYCQQGNSAPFTFGQGTKVEIKR
notes: as for B2
B10: I23RB161 (antibody, mouse IgG2a, kappa, V domains shown)
VH: EFQLQQSGPELVKPGASVKISCKASVYAFSSSWMNWVKQRPGKGLEWIGRIYPGDGDTNYNGKFKGKATLTADKSSSTAYMQLSSLTSEDSAVYFCARRYDFGSAMDYWGQGTSVTVSS
VL: DIVMTQSPAILSASPGEKVTMTCRASSSVSYMHWYQQKPGSSPKPWIYATSDLASGAPARFSGSGSGTSYSLTISRVEAEDAATYYCQQWSSNPPTFGGGTKLEIKR
notes: as for B1
B11: I23RB91 (antibody, mouse IgG2a, kappa, V domains shown)
VH: EFQLQQFGPELLKPGASVKISCKASGYTFTDYIMHWVKQSHGKSLEWIGGISPNYGGTGYNGKFKDKATLTVDKSSSTAYMELRSLTSEDSAVYYCARFNNYYYFDYWGQGTTLTVSS
VL: DIKMTQSPSSMYASLGERVTITCKASQDINSYLSWCQQKPGKSPKALIYRANSLVDGVPSRFSGSGSGQDYSLTISSLEYEDMGIYYCLQYDEFPYTFGGGTKLEMKR
notes: as for B1
B12: I23RB177 (antibody, mouse IgG2a, kappa, V domains shown)
VH: EVQLQQSGPELLKPGASVKISCKASGYTITDYTMHWVKQSHGKSLEWIGGINPNYGGTSYNEKFKDKATLTVDKSSSTAYMELRSLTSEDSAVFYCVRGNIYFDYWGQGTTLTVSS
VL: B11 VL with D1N, I2T, K3Q, C36F, S53R, L89Q, Y96R, G100A, M106L
notes: as for B1
B13: I23RB45 (antibody, mouse IgG2a, kappa, V domains shown)
VH: QVTLKESGPGILQPSQTLSLTCSFSGFSLSTYGMGVSWIRQPSGKGLEWLAHIYWDDDKRYNPSLKSRLTISKDTSNNQVFLKITSVDTADTATYYCAQRALPLLGQKAPFDYWGQGTTLTVSS
VL: DIVLTQSQKFISTSVGDRVSITCKASQNVRTAVAWYQQKPGQSPKLLIYLPSNRHTGVPDRFTGSGSGTVFTLTISNVQSEDQADYFCLQHWNYPLTFGAGTKLELKR
notes: as for B1
B14: I23RB69 (antibody, mouse IgG2a, kappa, V domains shown)
VH: EVQLQQSGAELVKPGASVKISCKASGYSFTGYNMNWVKQSHGKSLEWIGNINPFYDKTSYNQKFKGKATLTVDKASSTAYMQLNSLTSEDSAVYYCARQLGLKGFAYWGQGTLVTVSA
VL: DIVMTQSHKFMSTSVGDRVSITCKASQDVSTAVAWYQQKPGQSPKLLIYSASYRYTGVPDRFTGSGSGTDFTFTISSVQAEDLAVYYCQQHYSTPWTFGGGTKLEMKR
notes: as for B1
B15: I23RB31 (antibody, mouse IgG2a, kappa, V domains shown)
VH: EFQLQQSGAEMVRPGASVKLSCKASGYTFTGYWMNWVKQRPGQGLEWIGKIDPSDTETHYNQNFKDKATLTVDKSSSTAYMQLNSLTSEDSAVYYCARWGLGRNFAMDYWGQGTTLTVSS
VL: DIVLTQSPATLSVTPGDRVSLSCRASQSISDHLHWYQQKSHESPRLLIKFASQSISGIPSRFSGSGSGSDFTLSIDSVEPEDVGVYYCQNGHSFPLTFGSGTKLEIKR
notes: as for B1

Molecular target: T1, Recombinant human IL-23 receptor …
Assay: SPR Biacore 8K, supernatant, analysis 1
Procedure: (§1) Affinity by SPR using Biacore 8K. Affinity measurements using Surface Plasmon Resonance (SPR) were performed using a Biacore 8K system (Cytiva). […] Approximately 9000-10000 RU (response units) of mAbs were immobilized. The kinetic experiments were performed at 25° C. in running buffer 1× of (HBS-P+ Buffer 10× (Cytiva #BR100671)+100 μg/ml BSA). To perform kinetic experiments, approximately 150 RU of mAbs were captured followed by injections of human IL-23R or rat IL-23R at concentrations ranging from 0.8 nM to 500 nM (in a 5-fold serial dilution). The association phase was monitored for 3 minutes at 50 μL/min, then followed by 30 minutes of buffer flow (dissociation phase). […] The collected data were processed using Biacore insight Evaluation software (Version 3.0.12.15655). The kinetic analysis of the data was performed using a Langmuir 1:1 binding model. The result for each mAb was reported in the format of Ka (On-rate), Kd (Off-rate) and KD (equilibrium dissociation constant).

Going from B1 to B2, the Kd falls from 150 nM to 4.75 nM (32-fold). The second binds more tightly here.

B3 and B4 are within 1.5-fold of each other in Kd: 18.4 nM for the first, 17.9 nM for the second.

Compared with B5, B6 is 1.7-fold higher in Kd: 13.4 nM for the first, 22.5 nM for the second.

Compared with B7, B8 is 8.4-fold lower in Kd: 9.05 nM for the first, 1.08 nM for the second.

Compared with B9, B10 is 3.4-fold higher in Kd: 25.2 nM for the first, 84.5 nM for the second. The first binds more tightly here.

B11 and B12 are within 1.5-fold of each other in Kd: 5.15 nM for the first, 5.7 nM for the second.

Compared with B13, B14 is 13-fold higher in Kd: 21 nM for the first, 263 nM for the second.

Work on B15 yielded a Kd of 18.9 nM.

First: B1
Second: B2
The koff of the first is 350-fold higher: 0.0302 s⁻¹ for the first, 8.72e-05 s⁻¹ for the second.

Compared with B3, B4 is 2.2-fold higher in koff: 0.000384 s⁻¹ for the first, 0.000847 s⁻¹ for the second.

First: B5
Second: B6
The koff of the first is 1.9-fold higher: 0.000752 s⁻¹ for the first, 0.000402 s⁻¹ for the second.

Compared with B7, B8 is 2.8-fold higher in koff: 8.01e-05 s⁻¹ for the first, 0.000226 s⁻¹ for the second.

First: B9
Second: B10
The koff of the first is 46-fold lower: 0.000596 s⁻¹ for the first, 0.0274 s⁻¹ for the second.

B11 and B12 are within 1.5-fold of each other in koff: 0.00011 s⁻¹ for the first, 0.000107 s⁻¹ for the second.

Going from B13 to B14, the koff rises from 0.00332 s⁻¹ to 0.0493 s⁻¹ (15-fold).

For B15, the koff was 0.00123 s⁻¹.

Compared with B1, B2 is 11-fold lower in kon: 201000 M⁻¹ s⁻¹ for the first, 18400 M⁻¹ s⁻¹ for the second.

Going from B3 to B4, the kon rises from 20900 M⁻¹ s⁻¹ to 47400 M⁻¹ s⁻¹ (2.3-fold).

Compared with B5, B6 is 3.1-fold lower in kon: 55900 M⁻¹ s⁻¹ for the first, 17900 M⁻¹ s⁻¹ for the second.

Going from B7 to B8, the kon rises from 8850 M⁻¹ s⁻¹ to 210000 M⁻¹ s⁻¹ (24-fold).

Going from B9 to B10, the kon rises from 23600 M⁻¹ s⁻¹ to 324000 M⁻¹ s⁻¹ (14-fold).

B11 and B12 are within 1.5-fold of each other in kon: 21400 M⁻¹ s⁻¹ for the first, 18800 M⁻¹ s⁻¹ for the second.

B13 and B14 are within 1.5-fold of each other in kon: 158000 M⁻¹ s⁻¹ for the first, 188000 M⁻¹ s⁻¹ for the second.

B15 was tested, and the kon was 65500 M⁻¹ s⁻¹.

Molecular target: T1, Recombinant human IL-23 receptor …
Assay: SPR Biacore 8K, supernatant, analysis 2
Procedure: as §1

Compared with B8, B13 is 16-fold higher in Kd: 1.43 nM for the first, 22.5 nM for the second.

For B15, the Kd was 8.55 nM.

First: B8
Second: B13
The koff of the first is 26-fold lower: 0.000178 s⁻¹ for the first, 0.00456 s⁻¹ for the second.

B15 showed a koff of 0.000781 s⁻¹.

Compared with B8, B13 is 1.6-fold higher in kon: 124000 M⁻¹ s⁻¹ for the first, 203000 M⁻¹ s⁻¹ for the second.

In the case of B15, the kon is reported as 91300 M⁻¹ s⁻¹.
